± gives the uncertainty stated by the source.

This data set in a line: amyloid nucleation score (Sup35N fusion, yeast selection) (log enrichment); library NNK3; higher = more nucleation; inactive = no reads after selection. In a few lines:
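The nucleation score, computed with DiMSum, is the log enrichment of output over input reads, centred on the mode score of non-aggregating sequences. Sequences with under 100 input reads were dropped. Reads were generated by Illumina sequencing of plasmid inserts from psi-negative yeast with Sup35N fused to peptides of 20 random codons, induced with 100 μM copper sulfate for 24 hours and grown 7 days at 30°C on medium lacking adenine and uracil.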
In the case of ARRGLPVARIIFSHDPNL, the amyloid nucleation score entry is “inactive”.

Consider DIFCCWTDISDLF, for which the amyloid nucleation score result was “inactive”.

LTTRGRNTRSEDMGEPGLWA: the amyloid nucleation score entry was “inactive”.

With YNYLV, the amyloid nucleation score entry is “inactive”.

For CVSYAISNGLRMEFSKENQY, the amyloid nucleation score is 0.415 ± 0.14.

As to TIMETALDLSMHPMNVH, the amyloid nucleation score entry is “inactive”.

For the substance LPNRYVMINGCIRQFAKCDI, the amyloid nucleation score was 1.58 ± 0.08.

AYCVFHSIYGV: the amyloid nucleation score entry was “inactive”.

PSCFLPFNCPITLVYTCSLF registered an amyloid nucleation score of 2.14 ± 0.07.

For the substance TVCVWSVKVMP, the amyloid nucleation score is -0.492 ± 0.66.

Take WGRISNAHG: the amyloid nucleation score result was “inactive”.

Turning to KMHWNAGDQLYVRSPTHSLR, the amyloid nucleation score result is “inactive”.

For the substance TDFTYSLTFVYKLGEKTVDI, the amyloid nucleation score entry was “inactive”.

In the case of ILSLAGSKWCWEKYRMGS, the amyloid nucleation score entry is “inactive”.

In turn, ITMTCFCIMGAESISNLPMW came in with an amyloid nucleation score of 1.33 ± 0.11.

In the case of YGNGWTFWSFLWGSTNRQRT, the amyloid nucleation score entry is “inactive”.

Turning to CCHSITFLVNLGMRERKNKV, the amyloid nucleation score entry was “inactive”.

Take QGVVV: the amyloid nucleation score result is “inactive”.

RGVAVR showed an amyloid nucleation score of 1.89 ± 0.077.

Turning to LPLMDKLR, the amyloid nucleation score entry is “inactive”.

On to INDLKGVVLNIWIKYIV, for which the amyloid nucleation score turned out to be 0.602 ± 0.14.

LLGSMVWGYSARYNFRVSQG: the amyloid nucleation score entry is “inactive”.

Consider GRWGGDYFCVGNFMG, for which the amyloid nucleation score result is “inactive”.

Take RYYLFLVPSGVWGYVVLRDS: the amyloid nucleation score was 0.656 ± 0.21.

Consider RSQEVKTVGSLWQFFVSVLG, for which the amyloid nucleation score entry is “inactive”.

Take YSVLLCVALRLVNNVA: the amyloid nucleation score result is “inactive”.

As to DLFCCCYTLS, the amyloid nucleation score was 1.03 ± 0.2.

On to VTCSRSLRLSKMFPNKMFLI, for which the amyloid nucleation score result is “inactive”.

For LTIVAYVVATYSFCWWISVG, the amyloid nucleation score result is “inactive”.

On to RRMTSYFL, for which the amyloid nucleation score entry is “inactive”.

Turning to FLERISFYIKLVSRSYGGTS, the amyloid nucleation score result is “inactive”.

Consider VFCHTAIL, for which the amyloid nucleation score result is “inactive”.

Take SLLYYFWTNPGAFSKYIYSM: the amyloid nucleation score result was “inactive”.

RTRFQITCQEETTCPRFS: the amyloid nucleation score is 0.92 ± 0.16.

Regarding GSGMGL, the amyloid nucleation score result was “inactive”.

Turning to IREYCFH, the amyloid nucleation score result is “inactive”.

For the substance ECAYWMILLGLDYNGHPNRP, the amyloid nucleation score entry was “inactive”.

In the case of FNQAHSVTTDREAYRGRCQG, the amyloid nucleation score entry was “inactive”.

Consider RFTDRCTLHFQMFVVLRAVI, for which the amyloid nucleation score result is “inactive”.

Turning to LTQMCFTTSVFLRLAWVPFK, the amyloid nucleation score entry was “inactive”.

With NCSYIDQR, the amyloid nucleation score was determined as 0.483 ± 0.14.

As for FSMVCSFKWL, the amyloid nucleation score entry is “inactive”.

In the case of LQPKLGIT, the amyloid nucleation score entry is “inactive”.

For FAMETLNSSTFRCYHQFYGF, the amyloid nucleation score entry is “inactive”.

For ESSFSGLYYDSAM, the amyloid nucleation score result is “inactive”.

Consider LMAFNPMYSSQKYGTNYSFM, for which the amyloid nucleation score result was “inactive”.

As for KCLEGLMVVANDWWVKCFTS, the amyloid nucleation score amounted to 0.671 ± 0.24.

Consider VDVLER, for which the amyloid nucleation score result was “inactive”.

In the case of MMRWIDVGYLVDLYSLRISG, the amyloid nucleation score entry was “inactive”.

VSCSPMYEEYRHGNLAEYNE: the amyloid nucleation score was -0.559 ± 0.94.

TCSHIIPYWYGVRNSQVRYS: the amyloid nucleation score result was “inactive”.

As for CISLSRL, the amyloid nucleation score entry is “inactive”.

Turning to VPGYLWECS, the amyloid nucleation score result is “inactive”.

On to YASYFSWEDCHG, for which the amyloid nucleation score entry is “inactive”.

Consider FDHPFICIKPRATRREAWLT, for which the amyloid nucleation score entry was “inactive”.

For IEVYAGTF, the amyloid nucleation score entry is “inactive”.

In turn, RLYQFCFDENSIQLFIYP came in with an amyloid nucleation score of 2.35 ± 0.069.

In the case of RPYHSEKYDKFVDAMSFWCW, the amyloid nucleation score result was “inactive”.

On to NSFFKGGWMHPG, for which the amyloid nucleation score entry is “inactive”.

With MHTFSDQSISVEQRTCLQVR, the amyloid nucleation score result is “inactive”.

Take TAVWRFATSGKFFYSQSLGM: the amyloid nucleation score is 1.41 ± 0.14.

As to MYNNC, the amyloid nucleation score result was “inactive”.

In the case of FNGRLVLHHRTVI, the amyloid nucleation score entry was “inactive”.

Turning to GWVYDMVYYRSVKMGCAKRS, the amyloid nucleation score was determined as 0.389 ± 0.22.

Substance TYGNENSSLILSCTCYIMLS returned an amyloid nucleation score of 2.41 ± 0.082.

As for KIRIGW, the amyloid nucleation score entry was “inactive”.

With HHHSATLYFTFMSVTE, the amyloid nucleation score result was “inactive”.

As to FMFLVFDC, the amyloid nucleation score result was “inactive”.

For MNTRAVSVEFRYCARYFCHA, the amyloid nucleation score was determined as 0.142 ± 0.93.

For the substance RMVRRDRNKYSILLGLVMSN, the amyloid nucleation score entry was “inactive”.

In turn, SGSRLGHCSSLTMKSSLSVD gave an amyloid nucleation score of 1.06 ± 0.17.

For SLSYTRCCQNTILIKRYGLE, the amyloid nucleation score entry was “inactive”.

Take NSMYYPYQVVRWLVDWHVIR: the amyloid nucleation score result is “inactive”.

Regarding KEYGLFLYLNFFLDWFNFIN, the amyloid nucleation score entry was “inactive”.

With FAFAEERADLWSN, the amyloid nucleation score result was “inactive”.

Take EGDYECGNTWQNGGSTSEDP: the amyloid nucleation score entry is “inactive”.

TVLYWRLRQMMRFRLFSSNW: the amyloid nucleation score result was “inactive”.

As to GSFGYNCVKFHSDGFQAGRG, the amyloid nucleation score result is “inactive”.

In the case of RCLTEA, the amyloid nucleation score result was “inactive”.

FWVRYGPNSQGVGPWTMHRW: the amyloid nucleation score stood at 0.189 ± 0.74.

With PFSWCFICKSL, the amyloid nucleation score entry is “inactive”.

As for SLCFIWTCMSLVVHTALSVH, the amyloid nucleation score result was “inactive”.

With TMVICLSLLRNMILHF, the amyloid nucleation score result is “inactive”.

Consider EDFPRALVVRSYQWIYIQNV, for which the amyloid nucleation score was determined as 1.24 ± 0.12.

Turning to LPAMIGIWCILTH, the amyloid nucleation score entry was “inactive”.

In turn, DFYIGTGLISKVRLGHRCSC yielded an amyloid nucleation score of -0.305 ± 0.44.

Take YGVYINEAVEVRGPHAYMTS: the amyloid nucleation score entry is “inactive”.

For the substance NENYVIAGC, the amyloid nucleation score entry is “inactive”.

For SRNSSIMCFL, the amyloid nucleation score result is “inactive”.

As for NYKLQKHAWMNYSAHQECLF, the amyloid nucleation score result was “inactive”.

Consider VWRHQDLGARAKAASHG, for which the amyloid nucleation score entry was “inactive”.

As to LWKMILGTFMTQMCL, the amyloid nucleation score entry is “inactive”.

With RKCLMMCDYCITLNM, the amyloid nucleation score came out at 2.29 ± 0.06.

Regarding RSIVNSRALGLAADRRLEFS, the amyloid nucleation score result is “inactive”.

In the case of IALKSGMVCRYRYHIGGRIS, the amyloid nucleation score result was “inactive”.

Consider LTSMNSGLSYLKLFASQNLR, for which the amyloid nucleation score entry was “inactive”.

Consider QFEHF, for which the amyloid nucleation score entry is “inactive”.

For the substance HQKALTAVMWFNNRRGGLFG, the amyloid nucleation score entry was “inactive”.

As to YYGVDHLLNWIPFACTARLG, the amyloid nucleation score result was “inactive”.

Regarding SFAKHHDMK, the amyloid nucleation score result is “inactive”.

On to NYMTVRNGLIISIAPRRLRD, for which the amyloid nucleation score came out at 1.83 ± 0.085.

As for EVVAAYHPATDTSDRERKAL, the amyloid nucleation score entry was “inactive”.

The substance RGCGVQMS displayed an amyloid nucleation score of 0.882 ± 0.24.

In the case of VNFLSDIVNFGCIVWFPPKI, the amyloid nucleation score worked out at 2.32 ± 0.087.

Take SGCCLDSLYLTIRLDCLRWR: the amyloid nucleation score result is “inactive”.

With ILRFMYAVHDISFFYLIVCF, the amyloid nucleation score result is “inactive”.

As for GVVLSYNGTFWRVLINHHMC, the amyloid nucleation score entry is “inactive”.

For VYCPELLSRCGQVGSTCCDR, the amyloid nucleation score result is “inactive”.

With LRVFWRTFCVSWSECNKMLE, the amyloid nucleation score entry is “inactive”.

The substance SIKSLTIDSCLTS gave an amyloid nucleation score of 0.809 ± 0.2.

On to SCNRSSSV, for which the amyloid nucleation score result is “inactive”.

NEGSNATC registered an amyloid nucleation score of 0.713 ± 0.13.

WGLTMLRESRVCCKSYNKQG: the amyloid nucleation score result was “inactive”.

In the case of RDPASGVSMCTIIIVKGYTI, the amyloid nucleation score is 0.57 ± 0.2.

LSVVTSTHEDASSLNTTRWM: the amyloid nucleation score result was “inactive”.

Take FADYLMKPCRMCLLRDPVYS: the amyloid nucleation score entry was “inactive”.

As for FMGTGHSFGSQNPVSLILKS, the amyloid nucleation score entry was “inactive”.

ITCGIKIFF gave an amyloid nucleation score of 2.76 ± 0.068.

With LFLLFFSAHGQYIRCAIIVR, the amyloid nucleation score entry was “inactive”.

For the substance YRYRACSSNFYVTVFGQLHV, the amyloid nucleation score came to 2.33 ± 0.063.

With KMKSAIIPVECGSR, the amyloid nucleation score result was “inactive”.

In the case of WQHSRSLDTSACCPT, the amyloid nucleation score result was “inactive”.

In turn, FCSFEVRGCY registered an amyloid nucleation score of 0.346 ± 0.2.

For the substance RRLSM, the amyloid nucleation score result is “inactive”.

For TDWYVIF, the amyloid nucleation score result was “inactive”.

Turning to GYDAGAWPRWRRSIWVHGYG, the amyloid nucleation score entry is “inactive”.

In the case of LCSYSIESFALLHVFNEAFQ, the amyloid nucleation score result is “inactive”.

PRNFFLRVMHY: the amyloid nucleation score result was “inactive”.

For the substance RVPYFYFPPLR, the amyloid nucleation score entry is “inactive”.

Regarding LCSLCNSLAQWRYNSEWLYT, the amyloid nucleation score result was “inactive”.

For MRILKHMFQVDWLVNAMDAE, the amyloid nucleation score result is “inactive”.

As for LNMARDYFVFQSPADPGCLV, the amyloid nucleation score result was “inactive”.

For LPSGFLGPLIPVESQIPRTQ, the amyloid nucleation score result was “inactive”.

For the origin of these results see the supplement of paper PMC12042874.
